Experimental findings from US20210324050A1 (published 2021) are described below.

Assay [1] deals with T1, GII.4 Sydney 2012 shell (S) domain (UniProt P54635 1-221).
T1 chain: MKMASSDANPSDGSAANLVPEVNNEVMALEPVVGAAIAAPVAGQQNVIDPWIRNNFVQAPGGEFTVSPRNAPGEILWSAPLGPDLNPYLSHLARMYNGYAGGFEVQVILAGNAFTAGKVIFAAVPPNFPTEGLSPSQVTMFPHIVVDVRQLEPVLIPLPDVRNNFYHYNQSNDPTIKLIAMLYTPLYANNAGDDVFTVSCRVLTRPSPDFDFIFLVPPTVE
Kind of assay: ELISA.

The target of assay [2] is T1, GII.4 Sydney 2012 shell (S) domain. Description: ELISA.
For assay [3], the target named is T2, GII.4 Houston 2002 (ABY27560.1) VLPs (UniProt P54635 1-539). Description: VLP blockade.
For assay [4], the target named is T2, GII.4 Houston 2002 (ABY27560.1) VLPs. Description: ELISA binding. For orientation: An ELISA detects its analyte on a solid surface through an enzyme-linked reagent.
Assay [5] addresses GII.6 (AF414410) VLPs (norovirus GII.6). Kind of assay: VLP-PGM blockade.
In another assay the target is GI.3 Protruding (norovirus GI.3). Kind of assay: ELISA.
The next assay concerns the target GII.13 (norovirus GII.13). Description: ELISA.
A further assay has as its target GII.17 (norovirus GII.17). Description: ELISA.
Assay [6] has as its target GI.3 (norovirus GI.3). Description: ELISA.
Another assay deals with GII.3 (norovirus GII.3). Description: ELISA.
The target in assay [7] is GI.3 (norovirus GI.3). Description: VLP-PGM blockade.
The target of assay [8] is GII.6 (AF414410) VLPs (norovirus GII.6). Description: ELISA.
For the next assay, the target named is Protruding domain. Description: ELISA.
Assay [9] deals with T3, GII.4 Houston 2002 VLP (UniProt P54635 1-539). Kind of assay: VLP blockade.
The target in assay [10] is T3, GII.4 Houston 2002 VLP. Kind of assay: ELISA binding.
The target of another assay is GII.4 Sydney 2012 VLP (UniProt P54635 1-538). Kind of assay: VLP-PGM blockade.
The next assay deals with GI.2 (AF435807) VLPs (norovirus GI.2). Kind of assay: ELISA.

Read-outs that look alike come from different tables or passages of the source.

B1: NORO-202A.1 (antibody, V domains shown)
VH: QVQLVQSGAEVKKPGASVKVSCKASEYTFTGYYLQWVRQAPGHGLEWMGWINPSGGTKYSQKFQGRVTMTRDTSITTVYMELSRLRSDDTAVYYCARDLLRNWGDHDAFDVWGQGTMVTVSS
VL: QSVLTQPPSASETPGQGVTISCSGSSSNIGSNFVCWYQQVPGTAPKLLIYKNNQRPSGVPDRFSGSKSGTSASLAISGLRSEDEADYYCSAWDDSLSGPVFGGGTKLTVL
Broadly, the EC50 is the concentration that produces a half-maximal response. In the case of B1, the EC50 was 3 nM in [1]; 0.2 µg/mL in assay [2]; > 100 µg/mL in assay [3]; 0.1 µg/mL in assay [4]; 47 nM with GII.6 (AF414410) VLPs [5].

B2: 178.6 (antibody, V domains shown)
VH: QVQLVESGGGVVQPGRSLRLSCAASGFTFSTYGMNWVRQAPGRGLEWVADISYDGSNSRYADSVKGRFTISRDNSKNTLSLQMNGLRTEDTAVYYCAKDWYLAMAGAAFDSWGPGTLVTVSS
VL: SSELTQDPVVSVALGQTVRITCQGDSLTTFYASWFQQKPGQAPALVLYGNDNRPSGIPDRFSGSRSGNTASLTITGAQAEDEADYYCNSRDSSGKPSFGGGTKLTVL
Take B2: the EC50 in the assay with GI.3 Protruding amounted to 336 nM; with GII.13, 18 nM; in the assay with GII.17 it was 16 nM; with GI.3 [6], 83 nM; in the assay with GII.3, 29 nM; in the assay with GI.3 [7], 470 nM.

B3: NORO-178.6 (antibody, V domains shown)
VH: QVQLVESGGGVVQPGRSLRLSCAASGFTFSTYGMNWVRQAPGRGLEWVADISYDGSNSRYADSVKGRFTISRDNSKNTLSLQMNGLRTEDTAVYYCAKDWYLAMAGAAFDSWGPGTLVTVSS
VL: SSELTQDPVVSVALGQTVRITCQGDSLTTFYASWFQQKPGQAPALVLYGNDNRPSGIPDRFSGSRSGNTASLTITGAQAEDEADYYCNSRDSSGKPSFGGGTKLTVL
Take B3: the EC50 in the assay with GII.6 (AF414410) VLPs [8] is 20 nM; in [1], 8 nM.

B4: 156.3 (antibody, V domains shown)
VH: QVQLQQWGAGLLKPSETLSLTCAVYGGSFSGYYWSWIRQPPGKGLEWIGEINHSGSTNYNPSLKSRVTISVDTSKNQFSLKLSSVTAADTAVYYCARGLMDVWGQGTLVTVSS
VL: AIRMTQSPSSFSASTGDRVTITCRASQGISSYLAWYQQKPGKAPKLLIYAASTLQSGVPSRFSGSGSGTDFTLTISCLQSEDFATYYCQQYYSYPRTFGQGTKLEIK
Consider B4, for which the EC50 in the assay with GII.13 worked out at 54 nM; in the assay with GII.17, 90 nM; in the assay with GI.3 [6], 47 nM; in the assay with GI.3 [7], 678 nM.

B5: NORO-279A (antibody, V domains shown)
VH: QVQLVESGGGVVQPGRSLRLSCAASGFTFTKYGMHWVRQAPGKGLEWVAFIAYDGSVKYYGDSAKGRFAISRDNPKNTVYLQMNSLRAEDTAVYYCAKVEIHYYSNSLLGMDVWGQGTLVTVSS
VL: QSVLTQPPSASGTPGQRVTISCSGGNSNIGISYVYWYQHLPGTAPKLLISKNNLRPSGVPDRFSASKSGTSASLAISGLRSEDEAEYYCATLDINMTWVFGGGTKLTVL
With B5, the EC50 with GII.6 (AF414410) VLPs [8] was 14 nM; in assay [1], 3 nM; in assay [2], 0.4 µg/mL; in assay [3] it was > 100 µg/mL; in assay [4] it was 0.3 µg/mL; with GII.6 (AF414410) VLPs [5], 32 nM.

B6: 327A (antibody, V domains shown)
VH: QVQLEVSGGGLVKPGGSLRLSCAASGFTFTDYYMSWIRQAPGKGLEWVAYISGIMSSTKYADSVKGRFTISRDNGKNSVYLQMNSLTAEDTAVYYCARERVEPPSAVTDFWGQGTLVTVSS
VL: QSVLTQSPSVSGAPGQRVTISCTGTSSNIGAGYDVHWYQQFPGTAPKLLISHNTNRPSGVPDRFSGSKSGTSASLAITGLQAEDEADYYCQSFDSSLRGSRVFGGGTKLTVL
Regarding B6, the EC50 with Protruding domain amounted to 0.5 µg/mL; with GII.4 Houston 2002 VLP [9], 2.2 µg/mL; in the assay with GII.4 Houston 2002 VLP [10], 0.3 µg/mL; with GII.4 Sydney 2012 VLP, 5 µg/mL.

B7: 310A (antibody, V domains shown)
VH: EVQLVESGGGLVRPGESLRLSCVASGFSVSDNYMSWVRQAPGKGLQWVSVIYSGGTTFYTDSVKGRFTISRDKSKNTLFLQMNSLRAEDTAVYFCTRDPSQYYDSRGHYYQTFTPSFDSWGQGTLVTVSS
VL: DIQMTQSPSVMSASVGDRVTITCRASQDISDYLAWFQQKPGKVPKRLIYAASSLQNGVPSRFSGSGSGTEFTLTISSLQPEDFATYYCLQHDTYPLTFGGGTKVEIK
As for B7, the EC50 came out at 60 nM in the assay with GI.3 Protruding; 53 nM in the assay with GII.13; 40 nM with GII.17; 24 nM in the assay with GI.3 [6]; 15 nM with GII.3; 192 nM with GI.3 [7].

B8: NORO-310A (antibody, V domains shown)
VH: EVQLVESGGGLVRPGESLRLSCVASGFSVSDNYMSWVRQAPGKGLQWVSVIYSGGTTFYTDSVKGRFTISRDKSKNTLFLQMNSLRAEDTAVYFCTRDPSQYYDSRGHYYQTFTPSFDSWGQGTLVTVSS
VL: DIQMTQSPSVMSASVGDRVTITCRASQDISDYLAWFQQKPGKVPKRLIYAASSLQNGVPSRFSGSGSGTEFTLTISSLQPEDFATYYCLQHDTYPLTFGGGTKVEIK
B8: the EC50 with GII.6 (AF414410) VLPs [8] is 44 nM; in assay [1], 19 nM; in assay [2] it was 1.8 µg/mL; in [3], > 100 µg/mL; in assay [4], 0.6 µg/mL.

B9: 232 (antibody, V domains shown)
VH: QVQLKQWGAGLLKSSETLSLTCAFNGNSFGAFYWSWIRLSPGKGLEWIGEVNYLGGADYNPSLKSRVTMSADTSKRQFSLSLKSVTAADTGVYFCARGRPHDYSPGSYSRPRRYYGLDVWGQGTTVTVSS
VL: EIVLTQSPATLSLSPGDSATLSCRASQAVSTTYLAWYQQTRGQAPRLLIHGTYTRAIGIPDKFSGTGSGTDFTLTISGLAPEDFAVYYCQQYSSSPYTFGQGTKIEIT
B9: the midpoint of the response in the assay with GII.4 Sydney 2012 VLP, the EC50, lay at 4.4 µg/mL.

B10: NORO-168.2 (antibody, V domains shown)
VH: QVQLVESGGGVVQPGRSLRLSCAASGFTFSSYAMHWVRQAPGKGLEWVAVISYDGSNKYYADSVKGRFTISRDNSKNTLYLQMNSLRAEDTAVYYCARSVIGYYYYGMDVWGQGTLVTVSS
VL: QPVLTQPPSASASLGASVTLTCTLSSGYSNYKVDWYQQRPGKGPRFVMRVGTGGIVGSKGDGIPDRFSVLGSGLNRYLTIKNIQEEDESDYHCGADHGSGILFGGGTKLTVL
B10: the EC50 with GII.6 (AF414410) VLPs [8] came out at 198 nM; in the assay with GI.2 (AF435807) VLPs, 265 nM; in assay [1], 78 nM; with GII.6 (AF414410) VLPs [5], 7 nM.

B11: 246A (antibody, V domains shown)
VH: EVHLVESGGGLVKPGGSLRLSCAASGFTFSRYGMHWVRQAPGKGLEWVSSIVIRSDYKYYADSVKGRFTISRDNAKNSLYLQMNSLRADDTAVYYCARDLVEPGITPVGCDYWGRGTLVTVSS
VL: SNELTQAPSVSVSPGQTARITCFGDALANQYSYWYQRKPGQAPVLVIYKDSERPSGIPQRFSASNSGTTVTLTITGVQAEDEADYFCQSADSTGIYKVFGGGTKLTVL
In the case of B11, the EC50 was found to be 0.9 µg/mL in the assay with Protruding domain, 2.1 µg/mL with GII.4 Houston 2002 VLP [9] and 7.4 µg/mL with GII.4 Sydney 2012 VLP.

B12: 323A (antibody, V domains shown)
VH: QVQLVESGGGVVQPGRSLRLSCAASGFTFSGSSLHWVRQAPGKGLEWVAAISYDGTNTYYADSVKGRFTLSRDNSKNTLYLQMNSLRAEDTAVYYCAKPVLSPFDYWGQGTLVTVSS
VL: QSALTQPASVSGSPGQSITISCTGTSSDVGGYNYVSWYQQHPGKAPKLLIYEVSNRPSGVSRRFSGSKSGNTASLTISGLQAEDEADYYCCSYTSSSTEVFGGGTKLTVL
Take B12: the results for the EC50 in the assay with GI.3 Protruding, with GI.3 [6] and with GI.3 [7] were 7 nM, 3 nM and 15 nM, respectively.
